Four substances from paper PMC4477659 can be followed below.

What all share (assay): filter binding
Holding throughout (details): Filter binding: 10 mM HEPES, 3 mM MgCl2, 1 mM DTT, 5% glycerol, 100 mM KCl, 0.05 mg/ml tRNA, 5 uM BSA, 30 C 15 min; UV crosslinking: 10 mM HEPES pH 7.9, 3 mM …

The subject of series [1] is PTBP3 AUG11 isoform del1-103 (human), O95758-5.
For series [2], the system named is T1, PTBP3 AUG4 isoform del1-31 (human), O95758-5.
T1 sequence: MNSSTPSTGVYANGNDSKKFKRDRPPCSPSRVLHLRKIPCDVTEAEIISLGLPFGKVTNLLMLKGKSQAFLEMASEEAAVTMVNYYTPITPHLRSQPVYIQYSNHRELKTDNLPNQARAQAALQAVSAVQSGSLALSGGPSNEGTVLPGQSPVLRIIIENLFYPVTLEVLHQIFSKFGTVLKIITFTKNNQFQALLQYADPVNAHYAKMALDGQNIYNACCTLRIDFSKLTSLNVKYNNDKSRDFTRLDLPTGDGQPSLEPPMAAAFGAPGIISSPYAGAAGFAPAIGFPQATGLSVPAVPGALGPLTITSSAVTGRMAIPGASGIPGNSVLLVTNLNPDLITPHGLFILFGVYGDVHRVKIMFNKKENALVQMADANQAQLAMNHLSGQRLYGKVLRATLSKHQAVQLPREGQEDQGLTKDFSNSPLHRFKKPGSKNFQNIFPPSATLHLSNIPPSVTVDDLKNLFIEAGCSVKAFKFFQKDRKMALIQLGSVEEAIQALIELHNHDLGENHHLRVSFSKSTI

Series [3] deals with PTBP3 ΔRRM1 (human), O95758-5.

For orientation: Kd means the constant that tells how readily two partners part at equilibrium. For CUCUCUCUCUCUCUCUCUCUCUCU [[CUCUCU]4], the Kd in series [1] was found to be 43.7 nM; in series [2], 34.8 nM; in series [3], 75.8 nM.
Taken in the same sequence, the figures for EMCV IRES were 4.3 nM, 6.4 nM and 6.5 nM.
Taken in the same sequence, the figures for MTDH exon 7 RNA were 63.2 nM, 91.5 nM and 91.1 nM.
The corresponding values for PV IRES are 23.4 nM, 44.1 nM and 23.6 nM.
